Measurements as given in article PMC2771873 (2009).
Ends that are not written are not given here.

Target: T1, RyRP12 peptide (ryanodine receptor 1) RyRP12 (UniProt P21817, also: TAMRA label, position not given here)
T1 chain: KKAVWHKLLSKQ
Assay: fluorescence anisotropy

B1: S100A1 (protein)
chain: MGSELETAMETLINVFHAHSGKEGDKYKLSKKELKDLLQTELSSFLDVQKDADAVDKIMKELDENGDGEVDFQEFVVLVAALTVACNNFFWENS
  Kd: 139 nM
